Patent US20240109954A1 (GENERAL HOSPITAL, published 2024)
Residue numbers refer to the chain shown, from its start. Names and notes keep the numbering of the source.

Tests used:
[1] = target: T1, human FcγR2B (human, UniProt P31994 43-217); assay: SPR, mAb printed on chip, FcγR injected
T1 construct: also called huFcγR2B
T1 sequence: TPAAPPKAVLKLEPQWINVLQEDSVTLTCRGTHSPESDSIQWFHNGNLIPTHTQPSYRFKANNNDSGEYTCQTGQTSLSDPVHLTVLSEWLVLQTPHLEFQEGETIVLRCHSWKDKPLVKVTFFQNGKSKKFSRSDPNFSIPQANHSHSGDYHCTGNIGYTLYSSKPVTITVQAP

[2] = target: T2, human FcγR3B (human, UniProt O75015 17-200); assay: SPR, mAb printed on chip, FcγR injected
T2 construct: also called huFcγR3B

[3] = target: T3, human FcγR3A (F158) (human, UniProt P08637 17-208); assay: SPR, mAb printed on chip, FcγR injected
T3 construct: also called huFcγR3A

[4] = target: T4, human FcγR2A (R131) (human, UniProt P12318 34-217); assay: SPR, mAb printed on chip, FcγR injected
T4 construct: also called huFcγR2A
T4 sequence: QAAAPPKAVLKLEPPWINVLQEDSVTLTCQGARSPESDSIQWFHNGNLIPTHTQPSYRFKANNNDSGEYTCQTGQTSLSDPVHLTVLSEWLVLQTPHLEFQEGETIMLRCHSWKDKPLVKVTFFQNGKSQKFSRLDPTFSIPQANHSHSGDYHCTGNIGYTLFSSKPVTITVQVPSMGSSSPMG

[5] = target: T5, mouse FcγRIV (mouse, UniProt A0A0B4J1G0 21-203); assay: BLI, mAb on anti-human Fab-CH1 sensor, FcγR in solution
T5 construct: also called mFcγRIV
T5 sequence: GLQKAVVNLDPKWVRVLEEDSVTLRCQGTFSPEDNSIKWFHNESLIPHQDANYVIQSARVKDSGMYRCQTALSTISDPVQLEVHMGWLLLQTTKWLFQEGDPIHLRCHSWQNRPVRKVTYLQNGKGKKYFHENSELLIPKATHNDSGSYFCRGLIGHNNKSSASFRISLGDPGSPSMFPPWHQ

[6] = target: T6, mouse FcγRI (mouse, UniProt P26151 25-297); assay: as above
T6 construct: also called mFcγRI
T6 sequence: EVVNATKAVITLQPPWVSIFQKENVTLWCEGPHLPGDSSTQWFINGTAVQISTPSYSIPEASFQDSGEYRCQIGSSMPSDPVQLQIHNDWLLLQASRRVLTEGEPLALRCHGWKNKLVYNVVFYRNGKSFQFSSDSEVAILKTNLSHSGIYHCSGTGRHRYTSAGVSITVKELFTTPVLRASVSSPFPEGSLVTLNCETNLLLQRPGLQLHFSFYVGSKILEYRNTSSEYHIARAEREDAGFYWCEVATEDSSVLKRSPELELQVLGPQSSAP

[7] = target: T7, mouse FcγRIII (mouse, UniProt P08508 31-215); assay: as above
T7 construct: also called mFcγRIII; mFcγR3
T7 sequence: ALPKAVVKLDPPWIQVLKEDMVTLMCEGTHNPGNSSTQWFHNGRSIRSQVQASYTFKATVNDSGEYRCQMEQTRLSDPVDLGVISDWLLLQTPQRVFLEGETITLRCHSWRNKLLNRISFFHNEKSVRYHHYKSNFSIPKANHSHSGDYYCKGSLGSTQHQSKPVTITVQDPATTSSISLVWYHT

[8] = target: T8, mouse FcγRIIb (mouse, UniProt P08101 30-210); assay: as above
T8 construct: also called mFcγRIIb; mFcγR2b
T8 sequence: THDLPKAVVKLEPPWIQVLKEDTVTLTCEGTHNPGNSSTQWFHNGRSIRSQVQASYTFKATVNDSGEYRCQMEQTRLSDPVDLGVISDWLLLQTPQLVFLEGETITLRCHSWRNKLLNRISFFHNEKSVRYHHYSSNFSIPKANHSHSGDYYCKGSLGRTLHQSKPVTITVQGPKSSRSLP

[9] = target: T5, mouse FcγRIV; assay: SPR (IBIS MX96): mAb printed on the chip, recombinant FcγR injected at 10 to 0.005 µM; axis 'KD, M^-1', that is the reciprocal of KD
[10] = target: T2, human FcγR3B; assay: as above
[11] = target: T8, mouse FcγRIIb; assay: as above
[12] = target: T9, EBOV GP displayed on vesicular stomatitis virus (VSV) pseudovirions (Ebola virus, UniProt Q05320 33-676); assay: cell-based or functional assay
T9 sequence: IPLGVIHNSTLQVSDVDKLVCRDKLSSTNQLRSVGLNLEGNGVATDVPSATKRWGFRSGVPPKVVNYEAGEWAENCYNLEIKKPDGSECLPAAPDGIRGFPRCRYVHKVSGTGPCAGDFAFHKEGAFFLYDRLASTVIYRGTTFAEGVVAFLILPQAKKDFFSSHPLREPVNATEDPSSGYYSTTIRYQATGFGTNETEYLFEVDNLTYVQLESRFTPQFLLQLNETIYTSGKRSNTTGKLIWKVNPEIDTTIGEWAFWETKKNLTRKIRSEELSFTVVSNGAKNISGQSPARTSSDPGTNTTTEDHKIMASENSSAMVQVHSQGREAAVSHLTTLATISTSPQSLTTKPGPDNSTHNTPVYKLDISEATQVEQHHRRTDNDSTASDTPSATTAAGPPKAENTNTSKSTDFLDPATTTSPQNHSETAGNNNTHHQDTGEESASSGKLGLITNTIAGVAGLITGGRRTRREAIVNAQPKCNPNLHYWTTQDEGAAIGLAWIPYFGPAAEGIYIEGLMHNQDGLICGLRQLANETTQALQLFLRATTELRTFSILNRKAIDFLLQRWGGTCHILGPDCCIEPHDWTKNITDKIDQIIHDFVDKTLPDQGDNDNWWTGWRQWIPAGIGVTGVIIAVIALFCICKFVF

[13] = target: T8, mouse FcγRIIb; assay: BLI, mAb on anti-human Fab-CH1 sensor, FcγR in solution; remark: listed apart in the source
[14] = target: T4, human FcγR2A (R131); assay: SPR, mAb printed on chip, FcγR injected; remark: listed apart in the source
[15] = target: T2, human FcγR3B; assay: SPR, mAb printed on chip, FcγR injected; ND = not detected

T2 sequence (O75015 17-200): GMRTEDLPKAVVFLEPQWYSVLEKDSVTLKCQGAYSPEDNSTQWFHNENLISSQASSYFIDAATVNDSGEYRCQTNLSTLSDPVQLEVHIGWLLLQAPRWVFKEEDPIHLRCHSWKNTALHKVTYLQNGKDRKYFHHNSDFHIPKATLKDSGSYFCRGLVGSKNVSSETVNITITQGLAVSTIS
T3 sequence (P08637 17-208): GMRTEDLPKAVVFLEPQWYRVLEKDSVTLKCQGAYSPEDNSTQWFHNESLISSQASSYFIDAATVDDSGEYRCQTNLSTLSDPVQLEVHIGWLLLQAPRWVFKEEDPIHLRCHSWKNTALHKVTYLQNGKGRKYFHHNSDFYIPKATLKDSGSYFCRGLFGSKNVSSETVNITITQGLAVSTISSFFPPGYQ

B1: VIC16-IgG1 (antibody)
heavy: not shown
light: DIVITQDTASLAVSRGQRATISCRASESVEYYGTTLMQWYQQRPGQPPKLLIYGASNVESGVPARFSGSGSGTDFSLNIHPVEEDDIAMYFCQQSRKVPYTFGGGTKLEIKRTVAAPSVFIFPPSDEQLKSGTASVVCLLNNFYPREAKVQWKVDNALQSGNSQESVTEQDSKDSTYSLSSTLTLSKADYEKHKVYACEVTHQGLSSPVTKSFNRGEC
notes: also called VIC16 human IgG1; wild type IgG1
Kd [1]: 23000 nM
fold-change relative to IgG1 [1]: 1 fold
Kd [2]: 25000 nM
fold-change relative to IgG1 [2]: 1 fold
Kd [3]: 6100 nM
fold-change relative to IgG1 [3]: 1 fold
Kd [4]: 30000 nM
fold-change relative to IgG1 [4]: 1 fold
Kd [5]: 240 nM
fold-change relative to IgG1 [5]: 1 fold
Kd [6]: 80 nM
fold-change relative to IgG1 [6]: 1 fold
Kd [7]: 2830 nM
fold-change relative to IgG1 [7]: 1 fold
Kd [8]: 14900 nM
fold-change relative to IgG1 [8]: 1 fold

B2: VIC16-SELF (antibody)
heavy: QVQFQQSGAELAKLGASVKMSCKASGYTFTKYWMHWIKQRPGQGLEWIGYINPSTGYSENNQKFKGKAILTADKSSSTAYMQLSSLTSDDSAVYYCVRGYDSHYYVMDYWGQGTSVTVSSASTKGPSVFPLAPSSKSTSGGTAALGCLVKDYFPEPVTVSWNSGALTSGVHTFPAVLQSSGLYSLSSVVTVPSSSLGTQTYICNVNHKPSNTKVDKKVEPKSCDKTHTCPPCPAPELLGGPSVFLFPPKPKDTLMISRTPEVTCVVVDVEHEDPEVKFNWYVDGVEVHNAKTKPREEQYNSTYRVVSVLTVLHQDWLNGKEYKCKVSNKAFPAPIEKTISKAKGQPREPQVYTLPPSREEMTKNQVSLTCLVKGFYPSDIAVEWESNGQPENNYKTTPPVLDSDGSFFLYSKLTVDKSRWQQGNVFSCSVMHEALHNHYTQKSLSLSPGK
light: B1 light
binding result [9]: binds

B3: VIC16-SDIESA-LS (antibody)
heavy: QVQFQQSGAELAKLGASVKMSCKASGYTFTKYWMHWIKQRPGQGLEWIGYINPSTGYSENNQKFKGKAILTADKSSSTAYMQLSSLTSDDSAVYYCVRGYDSHYYVMDYWGQGTSVTVSSASTKGPSVFPLAPSSKSTSGGTAALGCLVKDYFPEPVTVSWNSGALTSGVHTFPAVLQSSGLYSLSSVVTVPSSSLGTQTYICNVNHKPSNTKVDKKVEPKSCDKTHTCPPCPAPELLGGPDVFLFPPKPKDTLMISRTPEVTCVVVDVSHEDPEVKFNWYVDGVEVHNAKTKPREEQYNATYRVVSVLTVLHQDWLNGKEYKCKVSNKALPAPEEKTISKAKGQPREPQVYTLPPSREEMTKNQVSLTCLVKGFYPSDIAVEWESNGQPENNYKTTPPVLDSDGSFFLYSKLTVDKSRWQQGNVFSCSVLHEALHSHYTQKSLSLSPGK
light: B1 light
binding result [10]: binds
binding result [9]: binds

B4: VIC16-DVNH (antibody)
heavy: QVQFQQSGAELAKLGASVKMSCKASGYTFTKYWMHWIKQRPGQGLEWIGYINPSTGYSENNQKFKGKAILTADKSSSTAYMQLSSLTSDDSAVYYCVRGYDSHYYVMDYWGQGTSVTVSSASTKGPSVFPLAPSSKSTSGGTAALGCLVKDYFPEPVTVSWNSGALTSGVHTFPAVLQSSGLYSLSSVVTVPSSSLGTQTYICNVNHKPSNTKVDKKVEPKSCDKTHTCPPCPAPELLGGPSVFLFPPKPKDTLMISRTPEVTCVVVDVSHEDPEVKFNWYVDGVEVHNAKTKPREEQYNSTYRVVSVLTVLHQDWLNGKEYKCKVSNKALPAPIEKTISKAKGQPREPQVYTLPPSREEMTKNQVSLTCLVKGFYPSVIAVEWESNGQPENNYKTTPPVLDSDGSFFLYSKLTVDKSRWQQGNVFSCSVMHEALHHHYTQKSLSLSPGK
light: B1 light
binding result [9]: binds

B5: VIC16-SAEAKA (antibody)
heavy: B3 heavy with D242S, E335I, E336A, K337A, L431M, S437N
light: B1 light
binding result [9]: binds
binding result [11]: binds

B6: VIC16-SAEAKA-LS (antibody)
heavy: B3 heavy with D242S, E335I, E336A, K337A
light: B1 light
binding result [10]: binds
binding result [9]: binds
binding result [11]: binds

B7: VIC16-EFTEA (antibody)
heavy: B3 heavy with G239A, D242S, S270E, H271F, A301S, S327T, L431M, S437N
light: B1 light
Kd [1]: 1200 nM
fold-change relative to IgG1 [1]: 19 fold
Kd [2]: 475000 nM
fold-change relative to IgG1 [2]: 0.05 fold
Kd [3]: 6100 nM
fold-change relative to IgG1 [3]: 1 fold
Kd [4]: 252 nM
fold-change relative to IgG1 [4]: 119 fold
Kd [5]: 120 nM
fold-change relative to IgG1 [5]: 2 fold
Kd [6]: 60 nM
fold-change relative to IgG1 [6]: 1.3 fold
Kd [7]: 1100 nM
fold-change relative to IgG1 [7]: 9 fold
Kd [8]: 490 nM
fold-change relative to IgG1 [8]: 30 fold
IC50, neutralization of VSV pseudotyped to display EBOV GP [12]: < 1 µg/mL
fold increase in binding [13]: 2 fold
fold higher KD compared to IgG1 [14]: 120 fold

B8: VIC16-KWES (antibody)
heavy: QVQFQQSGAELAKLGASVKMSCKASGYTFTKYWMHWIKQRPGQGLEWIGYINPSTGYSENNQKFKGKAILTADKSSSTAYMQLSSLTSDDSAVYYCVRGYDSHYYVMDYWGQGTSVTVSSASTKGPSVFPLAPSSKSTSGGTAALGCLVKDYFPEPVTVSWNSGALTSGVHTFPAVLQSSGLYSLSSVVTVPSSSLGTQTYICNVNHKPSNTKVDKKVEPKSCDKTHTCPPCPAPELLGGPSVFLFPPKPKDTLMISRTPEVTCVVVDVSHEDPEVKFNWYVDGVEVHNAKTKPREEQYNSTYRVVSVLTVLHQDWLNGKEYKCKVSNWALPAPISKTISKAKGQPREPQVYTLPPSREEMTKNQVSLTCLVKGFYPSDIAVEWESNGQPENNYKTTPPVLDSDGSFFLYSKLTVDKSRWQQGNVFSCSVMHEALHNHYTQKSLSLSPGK
light: B1 light
Kd [1]: 224000 nM
fold-change relative to IgG1 [1]: 0.12 fold
Kd [3]: 1600 nM
fold-change relative to IgG1 [3]: 3.8 fold
Kd [4]: 8600 nM
fold-change relative to IgG1 [4]: 3.4 fold
Kd [5]: 160 nM
fold-change relative to IgG1 [5]: 1.5 fold
Kd [6]: 70 nM
fold-change relative to IgG1 [6]: 1.1 fold
Kd [7]: 20 nM
fold-change relative to IgG1 [7]: 0.94 fold
Kd [8]: 46000 nM
fold-change relative to IgG1 [8]: 0.3 fold
IC50, neutralization of VSV pseudotyped to display EBOV GP [12]: < 1 µg/mL
binding result [15]: no binding (tested: FcγR 10 µM to 0.005 µM)

B9: VIC16-MLNS (antibody)
heavy: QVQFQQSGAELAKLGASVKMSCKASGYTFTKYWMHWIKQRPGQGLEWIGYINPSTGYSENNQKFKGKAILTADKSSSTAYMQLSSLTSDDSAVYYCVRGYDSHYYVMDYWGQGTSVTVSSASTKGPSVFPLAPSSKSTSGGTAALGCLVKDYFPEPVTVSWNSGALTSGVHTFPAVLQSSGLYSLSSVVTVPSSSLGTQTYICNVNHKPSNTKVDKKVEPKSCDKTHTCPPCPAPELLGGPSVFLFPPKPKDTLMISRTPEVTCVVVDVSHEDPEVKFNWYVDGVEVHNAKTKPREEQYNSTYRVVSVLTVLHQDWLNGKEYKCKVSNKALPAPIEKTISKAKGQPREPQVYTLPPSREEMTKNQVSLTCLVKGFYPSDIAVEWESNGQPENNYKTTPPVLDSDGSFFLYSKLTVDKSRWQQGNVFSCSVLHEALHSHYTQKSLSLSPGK
light: B1 light
binding result [9]: binds

B10: VIC16-EANA (antibody)
heavy: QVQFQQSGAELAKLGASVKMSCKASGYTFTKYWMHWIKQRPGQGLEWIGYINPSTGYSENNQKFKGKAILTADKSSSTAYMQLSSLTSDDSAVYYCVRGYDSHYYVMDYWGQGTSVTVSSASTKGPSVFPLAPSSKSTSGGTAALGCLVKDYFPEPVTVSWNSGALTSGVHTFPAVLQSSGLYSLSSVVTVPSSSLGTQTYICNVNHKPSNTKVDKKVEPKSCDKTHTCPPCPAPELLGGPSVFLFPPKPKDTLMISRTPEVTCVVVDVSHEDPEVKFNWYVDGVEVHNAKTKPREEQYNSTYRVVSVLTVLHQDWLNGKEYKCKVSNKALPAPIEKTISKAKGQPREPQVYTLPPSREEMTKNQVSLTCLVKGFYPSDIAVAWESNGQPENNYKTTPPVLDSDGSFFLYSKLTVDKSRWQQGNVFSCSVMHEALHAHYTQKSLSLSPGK
light: B1 light
binding result [11]: binds

B11: VIC16-E333A (antibody)
heavy: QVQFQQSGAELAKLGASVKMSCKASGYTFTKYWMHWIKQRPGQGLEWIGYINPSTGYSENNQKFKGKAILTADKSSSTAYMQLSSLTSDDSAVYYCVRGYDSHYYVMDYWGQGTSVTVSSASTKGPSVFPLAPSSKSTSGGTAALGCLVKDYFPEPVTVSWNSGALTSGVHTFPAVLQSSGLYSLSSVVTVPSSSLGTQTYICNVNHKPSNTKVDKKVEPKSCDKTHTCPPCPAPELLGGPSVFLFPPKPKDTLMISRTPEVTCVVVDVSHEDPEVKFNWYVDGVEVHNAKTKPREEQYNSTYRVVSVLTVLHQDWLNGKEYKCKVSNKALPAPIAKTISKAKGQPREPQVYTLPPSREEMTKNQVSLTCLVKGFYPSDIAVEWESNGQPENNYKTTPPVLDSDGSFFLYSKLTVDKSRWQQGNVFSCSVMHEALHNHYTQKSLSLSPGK
light: B1 light
binding result [11]: binds

B12: VIC16-K326W (antibody)
heavy: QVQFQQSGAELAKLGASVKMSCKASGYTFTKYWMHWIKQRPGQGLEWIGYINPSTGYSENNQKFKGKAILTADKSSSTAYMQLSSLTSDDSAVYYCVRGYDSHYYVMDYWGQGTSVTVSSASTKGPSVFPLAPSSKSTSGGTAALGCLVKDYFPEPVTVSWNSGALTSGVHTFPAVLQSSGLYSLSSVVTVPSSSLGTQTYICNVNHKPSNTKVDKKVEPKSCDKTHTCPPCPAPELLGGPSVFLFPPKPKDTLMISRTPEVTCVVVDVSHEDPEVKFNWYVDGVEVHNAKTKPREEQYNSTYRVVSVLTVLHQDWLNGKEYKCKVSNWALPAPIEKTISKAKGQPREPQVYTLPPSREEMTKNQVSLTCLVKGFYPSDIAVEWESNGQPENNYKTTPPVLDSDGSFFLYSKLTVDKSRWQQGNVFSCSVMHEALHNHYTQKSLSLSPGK
light: B1 light
binding result [9]: binds
